Data taken from IntAct's records for PubMed 34927784.

B1: Endosomal transmembrane epsin interactor 1 (Homo sapiens), Q15884 (parent)
chain: MILLVNLFVLLSVVCVLLNLAGFILGCQGAQFVSSVPRCDLVDLGEGKICFCCEEFQPAKCTDKENALKLFPVQPCSAVHLLLKKVLFALCALNALTTTVCLVAAALRYLQIFATRRSCIDESQISAEEAEDHGRIPDPDDFVPPVPPPSYFATFYSCTPRMNRRMVGPDVIPLPHIYGARIKGVEVFCPLDPPPPYEAVVSQMDQEQGSSFQMSEGSEAAVIPLDLGCTQVTQDGDIPNIPAEENASTSTPSSTLVRPIRSRRALPPLRTRSKSDPVLHPSEERAAPVLSCEAATQTERRLDLAAVTLRRGLRSRASRCRPRSLIDYKSYMDTKLLVARFLEQSSCTMTPDIHELVENIKSVLKSDEEHMEEAITSASFLEQIMAPLQPSTSRAHKLPSRRQPGLLHLQSCGDLHTFTPAGRPRAERRPRRVEAERPHSLIGVIRETVL

Assays:
ITCH, Q96J02-2 [1] = variants of: B1; conditions: with ITCH
epn1_human EPN1, Q9Y6I3 = variants of: B1; conditions: with epn1_human EPN1, Q9Y6I3
ITCH, Q96J02-2 [2] = variants of: B1; conditions: with ITCH; remark: listed apart in the source
ITCH, Q96J02-2 [3] = variants of: B1; conditions: with ITCH; remark: listed apart in the source

Sequence of ITCH, Q96J02-2 (Q96J02 other isoform, or with tags, fused parts or gaps): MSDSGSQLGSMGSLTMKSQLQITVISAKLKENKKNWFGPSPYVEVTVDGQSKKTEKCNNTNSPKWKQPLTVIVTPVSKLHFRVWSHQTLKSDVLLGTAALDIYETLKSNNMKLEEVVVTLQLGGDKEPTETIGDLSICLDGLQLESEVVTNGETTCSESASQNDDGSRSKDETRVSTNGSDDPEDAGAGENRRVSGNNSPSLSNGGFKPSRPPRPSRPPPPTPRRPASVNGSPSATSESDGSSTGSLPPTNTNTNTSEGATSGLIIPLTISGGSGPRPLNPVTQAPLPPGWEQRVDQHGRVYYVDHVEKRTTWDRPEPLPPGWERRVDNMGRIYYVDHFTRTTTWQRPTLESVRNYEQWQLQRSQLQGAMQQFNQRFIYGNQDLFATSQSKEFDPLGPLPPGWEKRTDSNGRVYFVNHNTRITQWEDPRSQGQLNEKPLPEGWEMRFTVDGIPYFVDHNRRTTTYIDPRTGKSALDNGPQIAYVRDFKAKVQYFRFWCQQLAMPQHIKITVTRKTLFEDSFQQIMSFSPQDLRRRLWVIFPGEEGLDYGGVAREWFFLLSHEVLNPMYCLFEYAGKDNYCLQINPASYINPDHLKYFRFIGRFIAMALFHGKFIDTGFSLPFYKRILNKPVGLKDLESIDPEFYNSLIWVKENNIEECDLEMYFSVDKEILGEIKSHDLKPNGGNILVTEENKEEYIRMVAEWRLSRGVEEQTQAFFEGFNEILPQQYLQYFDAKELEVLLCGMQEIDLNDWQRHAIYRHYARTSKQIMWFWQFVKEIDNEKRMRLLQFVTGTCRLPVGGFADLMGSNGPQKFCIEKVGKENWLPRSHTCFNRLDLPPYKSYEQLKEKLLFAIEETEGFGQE
Sequence of epn1_human EPN1, Q9Y6I3 (Q9Y6I3 whole entry): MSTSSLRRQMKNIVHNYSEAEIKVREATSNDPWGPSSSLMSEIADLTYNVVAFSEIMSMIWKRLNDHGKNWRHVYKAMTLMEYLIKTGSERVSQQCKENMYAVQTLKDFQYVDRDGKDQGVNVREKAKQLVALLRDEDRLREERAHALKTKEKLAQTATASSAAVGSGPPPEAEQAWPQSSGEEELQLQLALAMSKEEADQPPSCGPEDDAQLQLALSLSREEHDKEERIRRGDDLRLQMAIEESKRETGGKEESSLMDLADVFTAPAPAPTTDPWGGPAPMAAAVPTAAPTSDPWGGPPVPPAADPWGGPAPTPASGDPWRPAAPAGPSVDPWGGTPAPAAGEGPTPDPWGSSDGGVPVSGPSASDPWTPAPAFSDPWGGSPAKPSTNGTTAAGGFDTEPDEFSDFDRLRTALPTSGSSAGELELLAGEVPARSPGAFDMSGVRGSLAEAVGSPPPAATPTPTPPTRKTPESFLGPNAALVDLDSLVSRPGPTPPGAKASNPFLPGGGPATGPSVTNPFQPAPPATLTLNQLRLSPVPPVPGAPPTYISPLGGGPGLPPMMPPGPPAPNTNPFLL

| effect of a mutation on the interaction (ITCH, Q96J02-2 [1]) | effect of a mutation on the interaction (epn1_human EPN1, Q9Y6I3) | effect of a mutation on the interaction (ITCH, Q96J02-2 [2]) | effect of a mutation on the interaction (ITCH, Q96J02-2 [3]) | Variant |
| --- | --- | --- | --- | --- |
| with no effect | – | – | – | Y151A |
| decreasing interaction strength | – | – | – | Y197A |
| decreasing interaction strength | with no effect | with no effect | disrupting interaction strength | Y151A;Y197A |
